The values below come from US20050232926A1, “Antibodies specific for cancer associated antigen SM5-1 and uses thereof” (Oncomax Acquisition Corp., priority 2003, published 2005).

For one assay, the system named is QYC cells. Put plainly: Antibody-dependent cell mediated cytotoxicity (ADCC). The class given is cell-based, human. The settings on record: PBL effector to target ratio 20:1, 7 h, FIG. 7. How it is done:
Venous blood was taken sterilely from healthy donor and put into sterile 15 ml centrifuge tube containing 20 U/ml heparin. The solution was carefully mixed and equal volume of sterilized PBS was added to dilute the blood.
In a 15 ml centrifuge tube, 6 ml room temperature pre-warmed 100% lymphocytes isolation fluid (obtained from CACS, Cellular Biology Institute) was added. Along the tube wall of the tilted tube, 6 ml diluted anti-coagulation peripheral blood was added slowly into the tube without damaging the interface.
The tube was centrifuged at 20° C., 800 g for 30 min with brake turned off. After the centrifuge, three layers were formed. The three layers (from above to the bottom) were blood plasma layer, cell separation liquid layer, red and granular cell layer. A white frosted glass-like layer between the plasma layer and cell separation liquid layer was the layer containing lymphocytes and mononuclear cells. This white layer was taken out using a pipette and put into another 15 ml sterile centrifuge tube. PBS was added into the centrifuge tube to dilute the PBL suspension and then centrifuged at 200 g for 5 min. The pellet was washed 2 times with PBS. […]
QYC cells at the logistically growing stage were taken out from incubator. […] Cells were counted, and the concentration was adjusted to 3×10^5/ml. […]
Cytotoxicity Detection Kit by Roche's Corporation was used. […] OD was read at 490 nm.

For the next assay, the system named is SM5-1 antigen. The assay can be described thus: Competition binding assay.
Assay [1] has as its system hepatocelluer carcinoma cell line QYC. The assay can be described thus: Antigen binding activity by FCM. Also on record: species or system human. The settings on record: compared with chSM5-1. How it is done:
The humanized VL and VH were cloned into pMG18-3K expression vector and was expressed transiently in COS cells, yielding humanized version. Humanized antibody in COS cell culture supernatant was quantitated by ELISA and the binding of this version to hepatocelluer carcinoma cell line QYC was determined by FCM. […] The important FR residues that may have influences on binding activity were analyzed and the backmutation assay was carried out. […] The humanized version was designated as ReSM5-1 and its amino acid sequence and nucleotide sequence of both the heavy chain and the light chain shown in Table 3 below.

Assay [2] concerns the target human SM5-1 antigen (human). Put plainly: BIAcore (SPR), method of Karlsson et al.; antigen preparation and format not stated. (In general: SPR reads the build-up and loss of mass on a sensor chip optically.)

B1: chSM5-1: mouse-human chimeric antibody with mSM5-1 variable regions (SEQ ID NO:3, 4) and human constant regions (antibody, V domains shown)
VH: EVQLQQSGPELVKPGASVKMSCKASGYTFTSYVMHWVKQKPGQGLDWIGYIVPYNDGTKYNEKFKGKATLTSDKSSSTAYMELSRLTSEDSAVYYCVYGSRYDWYLDVWGAGTTVTVSS
VL: NIMMTQSPSSLAVSAGEKVTMSCKSSQSVLYSSNQKNYLAWYQQKPGQSPKLLIYWASTRESGVPDRFTGSGSGTDFTLTISSVQAEDLAVYYCHQYFSSYTFGGGTKLEIKR
modifications: human constant regions; Mus Musculus
Consider B1, for which, in the assay on QYC cells, the “anti-neoplasm effect via ADCC” value was “induced the apoptosis and inhibit the growth of tumor cells through ADCC pathway”.

B2: humanized anti-SM5-1 antibody (ReSM5-1) (antibody, V domains shown)
VH: QVQLVQSGGGVVQPGRSLRLSCKASGYTFTSYVMHWVRQAPGKGLEWIGYIVPYNDGTKYNEKFKGRFTISSDKSKSTAFLQMDSLRPEDTAVYYCARGSRYDWYLDYWGQGTPVTVSS
VL: NIMMTQSPSSLSASVGDRVTITCKSSQSVLYSSNQKNYLAWYQQTPGKAPKLLIYWASTRESGVPSRFSGSGSGTDYTFTISSLQPEDIATYYCHQYFSSYTFGQGTKLQITR
As for B2, the avidity result with SM5-1 antigen was “equivalent avidity as the murine SM5-1 or chimeric SM5-1 antibody”. In addition, the antigen binding activity result in assay [1] was “same antigen binding activity as chSM5-1”. The “anti-neoplasm effect via ADCC” value in the assay with QYC cells is “induced the apoptosis and inhibit the growth of tumor cells through ADCC pathway”. Also, in assay [2], the Kd was found to be 9.31 nM.

As usually defined, the Kd is the concentration at which binding is half-saturated.
